Measured values reported in paper PMC8135044, “Lytic transglycosylase MltG cleaves in nascent peptidoglycan and produces short glycan strands” (The Cell Surface, 2021).

Target: T1, BsPBP2B (Bacillus subtilis, UniProt Q07868 1-713)
T1 construct: Not pulled down by Ni-NTA beads alone; also called class B PBP2B; source: E. coli BL21 (DE3), purified from membranes (Ni-NTA, thrombin, HiTrap SP ion exchange)
T1 sequence (looked up): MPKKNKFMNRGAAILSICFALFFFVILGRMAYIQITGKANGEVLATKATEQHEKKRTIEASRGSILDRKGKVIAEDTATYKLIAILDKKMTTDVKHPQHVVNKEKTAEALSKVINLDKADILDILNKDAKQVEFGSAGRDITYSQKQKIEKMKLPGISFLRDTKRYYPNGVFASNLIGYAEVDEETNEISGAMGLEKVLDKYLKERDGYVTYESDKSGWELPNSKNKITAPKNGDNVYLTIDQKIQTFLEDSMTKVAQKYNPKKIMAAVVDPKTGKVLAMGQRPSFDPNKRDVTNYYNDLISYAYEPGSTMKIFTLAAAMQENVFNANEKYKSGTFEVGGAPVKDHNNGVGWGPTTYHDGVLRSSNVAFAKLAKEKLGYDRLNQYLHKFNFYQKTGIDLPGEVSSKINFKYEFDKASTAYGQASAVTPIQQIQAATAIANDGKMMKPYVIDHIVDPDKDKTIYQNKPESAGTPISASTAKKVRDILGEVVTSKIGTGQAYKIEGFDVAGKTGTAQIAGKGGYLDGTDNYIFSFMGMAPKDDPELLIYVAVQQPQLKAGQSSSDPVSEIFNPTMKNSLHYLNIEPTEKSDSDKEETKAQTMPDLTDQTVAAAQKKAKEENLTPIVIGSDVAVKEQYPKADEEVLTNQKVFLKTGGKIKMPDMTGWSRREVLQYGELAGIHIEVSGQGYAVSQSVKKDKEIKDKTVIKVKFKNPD
Test: SPR; PBP2B covalently bound to ampicillin immobilised on the chip; BsMltG injected as analyte, 0 to 500 nM; 25 C; 10 mM Tris/Maleate, 150 mM NaCl, 0.05% Triton X-100, pH 7.5; response at equilibrium fitted to one site saturation; three independent experiments
Conditions: both partners purified

B1: BsMltG (enzyme, Bacillus subtilis, UniProt O34758 1-360, looked up)
chain: MYINQQKKSFFNKKRIILSSIVVLFLIIGGAFLYGKSLLEPVEKDSKTTVNINIPSGSSVSAIASILKKNDVIKSEKAFQYYVKYKGASGFQAGFYHLNKGMDLDAIIQKLTSGATGYAFQITVTEGAQLTQIAAAIADETKYSKKQVIAKLDDETFINQLKKEFPDTVTNDVFNKNIKHPLEGYLFPATYPFNDPDTSLEDIIKAMIKQTNSYVETYKSEMKKNKVSVHKLLTMASLIEEEATEKADRHKIASVFYNRLKKKMPLQTDPTVLYAAGKHKDRVLYKDLEIDSPYNTYKNTGLTPGPIANAGMSSWEAALHPDKTDYLYFLAKSNGEVVFTKTLKEHNKAKEKYISSKNEK
notes: Named without 'His-' in the SPR and activity assays; also called YrrL; MltG from Bacillus subtilis; source: E. coli BL21 (DE3), purified from membranes (Ni-NTA, thrombin, HiTrap SP ion exchange)
Kd: 0.128 ± 0.028 µM
